Assays:
Assay in all cases: holdup assay
Set-up in all cases: key: below the threshold = too weak to quantify, mostly under pKd 3.1 to 4
[1] = target: PDLIM1, O00151
[2] = target: Inadl_3, Q8NI35
[3] = target: T1, GRIP1_2, Q9Y3R0
T1 sequence (Q9Y3R0 145-248, limits assumed, looked up): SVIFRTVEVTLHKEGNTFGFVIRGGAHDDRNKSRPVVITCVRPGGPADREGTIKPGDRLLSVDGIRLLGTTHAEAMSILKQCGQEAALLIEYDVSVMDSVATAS

[4] = target: T2, APBA1_1, Q02410
T2 sequence (Q02410 651-752, limits assumed, looked up): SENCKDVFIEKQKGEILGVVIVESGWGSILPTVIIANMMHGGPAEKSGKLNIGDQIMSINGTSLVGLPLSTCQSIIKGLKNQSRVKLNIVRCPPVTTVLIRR

[5] = target: LNX1_2, Q8TBB1
[6] = target: T3, SNTG2, Q9NY99
T3 sequence (Q9NY99 68-166, limits assumed, looked up): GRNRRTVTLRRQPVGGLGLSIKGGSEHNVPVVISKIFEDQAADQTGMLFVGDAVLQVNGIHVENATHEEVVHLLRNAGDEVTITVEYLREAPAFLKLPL

[7] = target: MAST1, Q9Y2H9
[8] = target: T4, RAPGEF6, Q8TEU7
T4 sequence (Q8TEU7 525-625, limits assumed, looked up): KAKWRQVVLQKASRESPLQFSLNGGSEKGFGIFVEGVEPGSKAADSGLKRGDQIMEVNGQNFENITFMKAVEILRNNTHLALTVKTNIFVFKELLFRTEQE

[9] = target: ARHGEF12, Q9NZN5-2
[10] = target: DLG5_1, Q8TDM6
[11] = target: T5, MPP7, Q5T2T1
T5 sequence (Q5T2T1 134-230, limits assumed, looked up): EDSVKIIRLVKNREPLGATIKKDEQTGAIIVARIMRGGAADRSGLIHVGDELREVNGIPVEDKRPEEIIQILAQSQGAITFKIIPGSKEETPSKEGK

[12] = target: Inadl_5, Q8NI35
[13] = target: T6, RHPN1, Q8TCX5
T6 sequence (Q8TCX5 508-602, limits assumed, looked up): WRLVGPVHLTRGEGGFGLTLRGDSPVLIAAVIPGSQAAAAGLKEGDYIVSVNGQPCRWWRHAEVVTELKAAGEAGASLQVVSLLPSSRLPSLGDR

[14] = target: IL16_3, Q14005
[15] = target: T7, ARHGEF11, O15085
T7 sequence (O15085 42-136, limits assumed, looked up): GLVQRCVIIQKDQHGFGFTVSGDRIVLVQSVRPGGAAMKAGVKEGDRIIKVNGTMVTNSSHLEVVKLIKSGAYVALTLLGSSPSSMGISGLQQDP

[16] = target: HTRA1, Q92743
[17] = target: FRMPD3, Q5JV73
[18] = target: GRID2IP_2, A4D2P6
[19] = target: MAGI3_2, Q5TCQ9
[20] = target: PTPN3, P26045
[21] = target: IL16_1, Q14005
[22] = target: T8, SNTA1, Q13424
T8 sequence (Q13424 82-180, limits assumed, looked up): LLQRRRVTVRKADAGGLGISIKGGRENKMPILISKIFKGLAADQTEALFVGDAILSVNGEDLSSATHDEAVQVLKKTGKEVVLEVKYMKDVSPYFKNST

[23] = target: MAGI2_2, Q86UL8
[24] = target: T9, RADIL, Q96JH8
T9 sequence (Q96JH8 971-1071, limits assumed, looked up): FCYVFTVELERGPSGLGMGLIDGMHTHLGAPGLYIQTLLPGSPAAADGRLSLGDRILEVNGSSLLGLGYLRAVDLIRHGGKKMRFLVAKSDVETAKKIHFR

[25] = target: TJP1_3, Q07157
[26] = target: T10, NHERF3_3, Q5T2W1
T10 sequence (Q5T2W1 238-333, limits assumed, looked up): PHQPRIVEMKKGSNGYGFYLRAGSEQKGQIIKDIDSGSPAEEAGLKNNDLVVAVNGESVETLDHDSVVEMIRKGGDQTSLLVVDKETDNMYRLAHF

[27] = target: T11, PDZRN3_1, Q9UPQ7
T11 sequence (Q9UPQ7 244-349, limits assumed, looked up): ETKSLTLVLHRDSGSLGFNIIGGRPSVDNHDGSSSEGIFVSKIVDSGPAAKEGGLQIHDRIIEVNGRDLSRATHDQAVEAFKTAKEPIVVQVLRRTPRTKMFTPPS

[28] = plain residues with an end cap or a label only (N-terminal biotin on a linker: ttds)
[29] = plain residues with an end cap or a label only (N-terminal biotin on a linker: none)
[30] = plain residues with an end cap or a label only (N-terminal biotin on a linker: ahx)

Sequence of MAGI3_2, Q5TCQ9 (Q5TCQ9 398-503): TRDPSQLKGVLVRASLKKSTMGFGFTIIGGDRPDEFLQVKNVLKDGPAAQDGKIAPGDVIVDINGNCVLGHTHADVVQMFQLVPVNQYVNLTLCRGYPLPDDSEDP
Sequence of IL16_1, Q14005 (Q14005 210-306): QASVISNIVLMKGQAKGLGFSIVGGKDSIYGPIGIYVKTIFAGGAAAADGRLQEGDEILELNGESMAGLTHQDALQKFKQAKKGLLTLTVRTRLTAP
Sequence of Inadl_3, Q8NI35 (Q8NI35 359-469): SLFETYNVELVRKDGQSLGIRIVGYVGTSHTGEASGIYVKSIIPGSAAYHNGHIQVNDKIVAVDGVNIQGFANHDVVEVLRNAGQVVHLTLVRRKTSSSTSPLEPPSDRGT
Sequence of FRMPD3, Q5JV73 (Q5JV73 12-100): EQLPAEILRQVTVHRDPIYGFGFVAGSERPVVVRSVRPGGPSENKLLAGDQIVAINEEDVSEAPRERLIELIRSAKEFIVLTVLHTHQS
Sequence of GRID2IP_2, A4D2P6 (A4D2P6 272-370): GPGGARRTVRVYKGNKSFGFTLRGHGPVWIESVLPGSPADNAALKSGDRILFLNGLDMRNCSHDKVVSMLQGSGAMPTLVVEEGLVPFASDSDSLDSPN
Sequence of PDLIM1, O00151 (O00151 1-87): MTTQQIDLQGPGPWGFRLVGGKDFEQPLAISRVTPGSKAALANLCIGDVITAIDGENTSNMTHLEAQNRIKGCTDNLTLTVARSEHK
Sequence of Inadl_5, Q8NI35 (Q8NI35 673-780): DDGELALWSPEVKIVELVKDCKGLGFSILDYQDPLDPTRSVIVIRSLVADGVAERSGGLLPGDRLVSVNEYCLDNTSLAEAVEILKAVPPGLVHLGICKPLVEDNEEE
Sequence of LNX1_2, Q8TBB1 (Q8TBB1 371-470): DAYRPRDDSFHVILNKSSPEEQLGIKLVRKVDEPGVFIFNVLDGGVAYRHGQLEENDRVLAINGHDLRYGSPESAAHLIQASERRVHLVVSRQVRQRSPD
Sequence of MAGI2_2, Q86UL8 (Q86UL8 410-522): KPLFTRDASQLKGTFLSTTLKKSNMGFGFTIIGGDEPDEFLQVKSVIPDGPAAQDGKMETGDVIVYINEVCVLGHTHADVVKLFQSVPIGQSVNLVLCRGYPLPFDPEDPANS
Sequence of DLG5_1, Q8TDM6 (Q8TDM6 617-713): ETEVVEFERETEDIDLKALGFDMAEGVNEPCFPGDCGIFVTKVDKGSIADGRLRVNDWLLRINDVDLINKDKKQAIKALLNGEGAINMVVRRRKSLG
Sequence of ARHGEF12, Q9NZN5-2 (Q9NZN5 other isoform, or with tags, fused parts or gaps): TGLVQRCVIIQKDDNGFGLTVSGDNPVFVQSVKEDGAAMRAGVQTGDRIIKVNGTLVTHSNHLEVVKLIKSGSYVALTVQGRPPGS
Sequence of HTRA1, Q92743 (Q92743 360-477): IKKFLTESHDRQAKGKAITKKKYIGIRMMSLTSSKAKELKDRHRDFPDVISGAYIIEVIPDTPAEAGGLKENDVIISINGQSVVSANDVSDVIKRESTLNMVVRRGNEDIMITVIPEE
Sequence of PTPN3, P26045 (P26045 505-587): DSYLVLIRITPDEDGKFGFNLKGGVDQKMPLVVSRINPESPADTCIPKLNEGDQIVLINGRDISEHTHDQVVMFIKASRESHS
Sequence of MAST1, Q9Y2H9 (Q9Y2H9 962-1065): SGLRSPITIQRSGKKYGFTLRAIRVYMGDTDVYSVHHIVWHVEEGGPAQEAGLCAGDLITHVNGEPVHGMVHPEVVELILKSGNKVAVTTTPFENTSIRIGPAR
Sequence of TJP1_3, Q07157 (Q07157 416-512): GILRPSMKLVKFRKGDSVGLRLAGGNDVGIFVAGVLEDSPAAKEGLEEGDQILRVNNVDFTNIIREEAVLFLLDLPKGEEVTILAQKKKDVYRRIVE
Sequence of IL16_3, Q14005 (Q14005 1107-1207): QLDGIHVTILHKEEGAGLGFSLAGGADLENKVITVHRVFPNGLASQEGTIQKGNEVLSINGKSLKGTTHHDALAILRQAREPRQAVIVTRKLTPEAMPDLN

B1: OTULIN, Q96BN8 (peptide)
chain: PVRVCEETSL
pKd [1, 28]: below the threshold
pKd [2, 28]: 3.66
pKd [3, 28]: 3.69
pKd [4, 28]: below the threshold
pKd [5, 28]: below the threshold
pKd [6, 28]: 4.63
pKd [7, 28]: 5.3
pKd [8, 28]: below the threshold
pKd [9, 28]: 4.8
pKd [10, 28]: 3.52
pKd [11, 28]: below the threshold
pKd [12, 28]: 3.54
pKd [13, 28]: 4.93
pKd [14, 28]: below the threshold
pKd [15, 28]: 4.63
pKd [16, 28]: 4.04
pKd [17, 28]: 3.81
pKd [18, 28]: 4.75
pKd [19, 28]: 3.71
pKd [20, 28]: 5.01
pKd [21, 28]: 3.53
pKd [22, 28]: 4.53
pKd [23, 28]: 4.09
pKd [24, 28]: below the threshold
pKd [25, 28]: below the threshold
pKd [26, 28]: below the threshold
pKd [27, 28]: 4.99

B2: SARS-CoV2-E, P0DTC4 (peptide)
chain: NLNSSRVPDLLV
pKd [1, 29]: below the threshold
pKd [2, 29]: 3.47
pKd [3, 29]: below the threshold
pKd [4, 29]: below the threshold
pKd [5, 29]: 3.81
pKd [6, 29]: below the threshold
pKd [7, 29]: below the threshold
pKd [8, 29]: below the threshold
pKd [9, 29]: below the threshold
pKd [10, 29]: below the threshold
pKd [11, 29]: below the threshold
pKd [12, 29]: below the threshold
pKd [13, 29]: below the threshold
pKd [14, 29]: below the threshold
pKd [15, 29]: below the threshold
pKd [16, 29]: 4.32
pKd [17, 29]: below the threshold
pKd [18, 29]: below the threshold
pKd [19, 29]: below the threshold
pKd [20, 29]: below the threshold
pKd [21, 29]: below the threshold
pKd [22, 29]: below the threshold
pKd [23, 29]: below the threshold
pKd [24, 29]: 3.76
pKd [25, 29]: below the threshold
pKd [26, 29]: below the threshold
pKd [27, 29]: below the threshold

B3: HPV73-E6, Q82005 (peptide)
chain: SGSRPSATVV
pKd [1, 28]: 3.48
pKd [2, 28]: below the threshold
pKd [3, 28]: below the threshold
pKd [4, 28]: below the threshold
pKd [5, 28]: 4.06
pKd [6, 28]: below the threshold
pKd [7, 28]: 3.73
pKd [8, 28]: 3.57
pKd [9, 28]: below the threshold
pKd [10, 28]: below the threshold
pKd [11, 28]: below the threshold
pKd [12, 28]: below the threshold
pKd [13, 28]: below the threshold
pKd [14, 28]: below the threshold
pKd [15, 28]: 3.98
pKd [16, 28]: 3.9
pKd [17, 28]: below the threshold
pKd [18, 28]: below the threshold
pKd [19, 28]: 4.91
pKd [20, 28]: below the threshold
pKd [21, 28]: below the threshold
pKd [22, 28]: 3.54
pKd [23, 28]: 4.19
pKd [24, 28]: 4.27
pKd [25, 28]: below the threshold
pKd [26, 28]: below the threshold
pKd [27, 28]: below the threshold

B4: LNX2, Q8N448 (peptide)
chain: TVICWPGSLV
pKd [1, 30]: 4.31
pKd [2, 30]: 4.19
pKd [3, 30]: below the threshold
pKd [4, 30]: below the threshold
pKd [5, 30]: 3.99
pKd [6, 30]: 3.73
pKd [7, 30]: 3.88
pKd [8, 30]: below the threshold
pKd [9, 30]: below the threshold
pKd [10, 30]: below the threshold
pKd [11, 30]: below the threshold
pKd [12, 30]: 3.51
pKd [13, 30]: 3.85
pKd [14, 30]: below the threshold
pKd [15, 30]: 3.58
pKd [16, 30]: 4.94
pKd [17, 30]: below the threshold
pKd [18, 30]: 3.95
pKd [19, 30]: 4.58
pKd [20, 30]: 4.23
pKd [21, 30]: 4.54
pKd [22, 30]: 3.96
pKd [23, 30]: 4.26
pKd [24, 30]: 4.91
pKd [25, 30]: below the threshold
pKd [26, 30]: below the threshold
pKd [27, 30]: 4.17

B5: PDLIM4, P50479;P50479-2 (peptide)
chain: PSASCAVTAA
pKd [1, 30]: below the threshold
pKd [2, 30]: below the threshold
pKd [3, 30]: below the threshold
pKd [4, 30]: below the threshold
pKd [5, 30]: below the threshold
pKd [6, 30]: below the threshold
pKd [7, 30]: below the threshold
pKd [8, 30]: below the threshold
pKd [9, 30]: below the threshold
pKd [10, 30]: below the threshold
pKd [11, 30]: below the threshold
pKd [12, 30]: below the threshold
pKd [13, 30]: below the threshold
pKd [14, 30]: below the threshold
pKd [15, 30]: below the threshold
pKd [16, 30]: below the threshold
pKd [17, 30]: below the threshold
pKd [18, 30]: below the threshold
pKd [19, 30]: below the threshold
pKd [20, 30]: below the threshold
pKd [21, 30]: below the threshold
pKd [22, 30]: below the threshold
pKd [23, 30]: below the threshold
pKd [24, 30]: below the threshold
pKd [25, 30]: below the threshold
pKd [26, 30]: below the threshold
pKd [27, 30]: below the threshold
